Values belong to the binder of their own block, whether it stands above or below them.
How the values were obtained:
[1] = biological target: Cav1.2 channel (α1.2 subunit, with β2a); assay: cell-based or functional assay
[2] = biological target: Cav3.1 channel (α3.1 subunit); assay: cell-based or functional assay

B1: γ1 TM1a peptide (peptide)
peptide: VTLFFILA
- inhibition of Cav1.2 current at 30 µM peptide [1]: 15.5%

- inhibition of Cav3.1 current at 30 µM peptide [2]: 26.3%
B2: γ6 TM1a V45FI47F peptide (peptide)
peptide: LGLLFAFV

B3: γ6 TM1a SCR peptide (peptide)
peptide: LLILAVGV
- inhibition of Cav1.2 current at 30 µM peptide [1]: 3.2%

- inhibition of Cav3.1 current at 30 µM peptide [2]: 15.8%
B4: γ6 TM1b A50L peptide (peptide)
peptide: VGLTLAVL

- inhibition of Cav3.1 current at 30 µM peptide [2]: 5.5%
B5: γ6 TM1b peptide (peptide)
peptide: VGATLAVL
- inhibition of Cav1.2 current at 30 µM peptide [1]: 6.7%

- inhibition of Cav3.1 current at 30 µM peptide [2]: 16.4%
B6: γ6 TM1a G42T peptide (peptide)
peptide: LTLLVAIV

- inhibition of Cav3.1 current at 30 µM peptide [2]: 20.6%
B7: γ6 TM1a L41FL43F peptide (peptide)
peptide: FGFLVAIV

B8: γ1 TM1a T12GI16A peptide (peptide)
peptide: VGLFFALA
- inhibition of Cav1.2 current at 30 µM peptide [1]: 27.5%

- inhibition of Cav3.1 current at 30 µM peptide [2]: -3.5%
B9: γ4 TM1a peptide (peptide)
peptide: LTTAGAFA
- inhibition of Cav1.2 current at 30 µM peptide [1]: -2.5%

From patent US20090325887A1 (BOARD OF TRUSTEES OF THE UNIVERSITY OF ILLINOIS, published 2009)
